These results are taken from patent US20060172935A1 (published 2006).

Assay [1] addresses PKR2 stably expressed in Chinese Hamster Ovary cells (CHO-PKR2). Kind of assay: cell-based or functional assay.
Assay [2] concerns the target T1, mouse PK2 receptor (mouse, UniProt Q8K458 1-381).
T1 construct: G-protein coupled receptor; also called PKR2; mouse PKR2
Kind of assay: PK2 receptor binding assay with radioiodinated ligand (FIG. 11). The source says:
An exemplary assay for determining binding of detectably labeled PK2, PK1 or PK2/PK1 chimera to PK2 receptor or PK1 receptor is the radioligand filter binding assay described in Li et al. Molecular Pharmacology 59:692-698 (2001)). […] A variety of other low- and high-throughput assays suitable for detecting selective binding interactions between a receptor and a ligand are known in the art. Such assays include, for example, fluorescence correlation spectroscopy (FCS) and scintillation proximity assays (SPA) reviewed in Major, J. Receptor and Signal Transduction Res. 15:595-607 (1995); and in Sterrer et al., J. Receptor and Signal Transduction Res. 17:511-520 (1997)). Binding assays can be performed in any suitable assay format including, for example, cell preparations such as whole cells or membranes that contain PK2 receptor or PK1 receptor, or substantially purified PK2 receptor polypeptide or PK1 receptor, either in solution or bound to a solid support.

T1 sequence (Q8K458 whole entry): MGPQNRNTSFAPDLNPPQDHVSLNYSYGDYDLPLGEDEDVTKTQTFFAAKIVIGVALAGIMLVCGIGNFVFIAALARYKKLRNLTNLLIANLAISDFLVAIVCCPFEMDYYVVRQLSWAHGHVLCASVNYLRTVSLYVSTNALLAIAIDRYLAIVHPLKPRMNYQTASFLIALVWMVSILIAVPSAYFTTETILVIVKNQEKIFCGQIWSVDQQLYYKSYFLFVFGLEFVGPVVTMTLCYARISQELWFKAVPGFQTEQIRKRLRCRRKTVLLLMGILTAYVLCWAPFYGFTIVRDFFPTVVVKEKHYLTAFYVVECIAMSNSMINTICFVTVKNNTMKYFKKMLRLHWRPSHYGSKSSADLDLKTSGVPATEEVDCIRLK

“purified recombinant mouse PK2 (from UniProt Q9QXU7 27-128) (ligand)”: in assay [1], the EC50, calcium mobilization stood at 7.3 nM and the fold stimulation of CLOCK:BMAL1-mediated transcription of the 2.8 kb PK2 promoter (luciferase) was determined as 4 fold.

B1: 125I-human PK2 (iodinated human prokineticin 2) (ligand)
chain: AVITGACDKDSQCGGGMCCAVSIWVKSIRICTPMGKLGDSCHPLTRKVPFFGRRMHHTCPCLPGLACLRTSFNRFICLAQK
modifications: radioiodinated with 125I (residue not stated for this assay)
notes: also called iodinated PK2
Usually Kd stands for the equilibrium constant for the complex coming apart. With B1, the dissociation constant (Kd) in assay [2] is around 1 nM.
